In test [1] the target is MbR E179A (Methanococcoides burtonii). The test can be described thus: native gel or EMSA; non-denaturing PAGE (4-15% gel; 25 mM Tris, 0.19 M glycine, pH 8.3) of activated MbR incubated with 1x or 10x molar 2-CABP (relative to active sites) for 1 h at room temperature; step: L2 dimers to higher oligomers up to L10; some 2-CABP-bound samples were then incubated with 20 or 40 mM EDTA for 30 min, which did not pull the higher order complexes apart. (In general: Mobility shift assays separate free from complexed probe on a gel.)

Test [2] deals with MbR D183A (Methanococcoides burtonii). The test is described as above.
Test [3] concerns the target MbR D366A (Methanococcoides burtonii). The description is as above.
Test [4] concerns the target Methanococcoides burtonii Rubisco (MbR), wild type, H6-Ub tag cleaved (Methanococcoides burtonii). Briefly: crystal structure; MbR activated (10 mM NaHCO3, 10 mM MgCl2) and incubated with a 10-fold molar excess of 2-CABP; hanging drop, room temperature; 2.6 Å; five LSus in the asymmetric unit, L10 by crystallographic symmetry.
Test [5] has the same target. Briefly: native gel or EMSA; non-denaturing PAGE of purified, activated MbR incubated without 2-CABP: with 4-CABP or XuBP (1x, 10x molar), 3-PGA (1x, 10x, 1000x molar) or crystallization buffer alone, 1 h at room temperature; step: L2 dimers to higher oligomers.

This note sets out measurements from article PMC5399129.

As to MbR E179A (enzyme), in test [1], the stoichiometry N (usually the number of molecules, sites or subunits per partner or assembly) is 2.

MbR D183A (enzyme) displayed a stoichiometry N in test [2] of 10.

The substance MbR D366A (enzyme) registered a stoichiometry N in test [3] of 10.

As for “Methanococcoides burtonii Rubisco (MbR), wild type, H6-Ub tag cleaved (enzyme)”, the stoichiometry N is 10 in test [4] and 2 in test [5].
